Reference: paper PMC2878758

Substrate: Nc1ncnc2c1ncn2[C@@H]1O[C@H](COP(=O)(O)OP(=O)(O)OP(=O)(O)O)[C@@H](O)[C@H]1O
Test: ATPase assay, free ADP versus time, initial velocities
Type: biochemical, Saccharomyces cerevisiae
Settings: 37 °C, saturating aI5β intron RNA transcript

B1: Mss116p (Saccharomyces cerevisiae S288C) (protein)
chain: NHITWAVSRRLYNDGNRDQRNFGRNQRNNNSNRYRNSRFNSRPRTRSREDDDEVHFDKTTFSKLIHVPKEDNSKEVTLDSLLEEGVLDKEIHKAITRMEFPGLTPVQQKTIKPILSSEDHDVIARAKTGTGKTFAFLIPIFQHLINTKFDSQYMVKAVIVAPTRDLALQIEAEVKKIHDMNYGLKKYACVSLVGGTDFRAAMNKMNKLRPNIVIATPGRLIDVLEKYSNKFFRFVDYKVLDEADRLLEIGFRDDLETISGILNEKNSKSADNIKTLLFSATLDDKVQKLANNIMNKKECLFLDTVDKNEPEAHERIDQSVVISEKFANSIFAAVEHIKKQIKERDSNYKAIIFAPTVKFTSFLCSILKNEFKKDLPILEFHGKITQNKRTSLVKRFKKDESGILVCTDVGARGMDFPNVHEVLQIGVPSELANYIHRIGRTARSGKEGSSVLFICKDELPFVRELEDAKNIVIAKQEKYEPSEEIKSEVLEAVTEEPEDISDIVISLISSYRSCIKEYRFSERRILPEIASTYGVLLNDPQLKIPVSRRFLDKLGLSRSPIGKAMFEIRDYSSRDGNNKSYDYDDDSEISFRGNKNYNNRSQNRDYDDEPFRRSNNNRRSFSRSNDKNNYSSRNSNIY
  Km: 167 ± 20 µM
  kcat: 0.496 ± 0.0603 s⁻¹

B2: Mss116p (Saccharomyces cerevisiae S288C; S305A) (protein)
chain: NHITWAVSRRLYNDGNRDQRNFGRNQRNNNSNRYRNSRFNSRPRTRSREDDDEVHFDKTTFSKLIHVPKEDNSKEVTLDSLLEEGVLDKEIHKAITRMEFPGLTPVQQKTIKPILSSEDHDVIARAKTGTGKTFAFLIPIFQHLINTKFDSQYMVKAVIVAPTRDLALQIEAEVKKIHDMNYGLKKYACVSLVGGTDFRAAMNKMNKLRPNIVIATPGRLIDVLEKYSNKFFRFVDYKVLDEADRLLEIGFRDDLETISGILNEKNSKSADNIKTLLFAATLDDKVQKLANNIMNKKECLFLDTVDKNEPEAHERIDQSVVISEKFANSIFAAVEHIKKQIKERDSNYKAIIFAPTVKFTSFLCSILKNEFKKDLPILEFHGKITQNKRTSLVKRFKKDESGILVCTDVGARGMDFPNVHEVLQIGVPSELANYIHRIGRTARSGKEGSSVLFICKDELPFVRELEDAKNIVIAKQEKYEPSEEIKSEVLEAVTEEPEDISDIVISLISSYRSCIKEYRFSERRILPEIASTYGVLLNDPQLKIPVSRRFLDKLGLSRSPIGKAMFEIRDYSSRDGNNKSYDYDDDSEISFRGNKNYNNRSQNRDYDDEPFRRSNNNRRSFSRSNDKNNYSSRNSNIY
  Km: 162 ± 16 µM
  kcat: 0.322 ± 0.142 s⁻¹

B3: Mss116p (Saccharomyces cerevisiae S288C; Q412A) (protein)
chain: NHITWAVSRRLYNDGNRDQRNFGRNQRNNNSNRYRNSRFNSRPRTRSREDDDEVHFDKTTFSKLIHVPKEDNSKEVTLDSLLEEGVLDKEIHKAITRMEFPGLTPVQQKTIKPILSSEDHDVIARAKTGTGKTFAFLIPIFQHLINTKFDSQYMVKAVIVAPTRDLALQIEAEVKKIHDMNYGLKKYACVSLVGGTDFRAAMNKMNKLRPNIVIATPGRLIDVLEKYSNKFFRFVDYKVLDEADRLLEIGFRDDLETISGILNEKNSKSADNIKTLLFSATLDDKVQKLANNIMNKKECLFLDTVDKNEPEAHERIDQSVVISEKFANSIFAAVEHIKKQIKERDSNYKAIIFAPTVKFTSFLCSILKNEFKKDLPILEFHGKITANKRTSLVKRFKKDESGILVCTDVGARGMDFPNVHEVLQIGVPSELANYIHRIGRTARSGKEGSSVLFICKDELPFVRELEDAKNIVIAKQEKYEPSEEIKSEVLEAVTEEPEDISDIVISLISSYRSCIKEYRFSERRILPEIASTYGVLLNDPQLKIPVSRRFLDKLGLSRSPIGKAMFEIRDYSSRDGNNKSYDYDDDSEISFRGNKNYNNRSQNRDYDDEPFRRSNNNRRSFSRSNDKNNYSSRNSNIY
  Km: 177 ± 33 µM
  kcat: 0.393 ± 0.0933 s⁻¹

B4: Mss116p (Saccharomyces cerevisiae S288C; T307A) (protein)
chain: NHITWAVSRRLYNDGNRDQRNFGRNQRNNNSNRYRNSRFNSRPRTRSREDDDEVHFDKTTFSKLIHVPKEDNSKEVTLDSLLEEGVLDKEIHKAITRMEFPGLTPVQQKTIKPILSSEDHDVIARAKTGTGKTFAFLIPIFQHLINTKFDSQYMVKAVIVAPTRDLALQIEAEVKKIHDMNYGLKKYACVSLVGGTDFRAAMNKMNKLRPNIVIATPGRLIDVLEKYSNKFFRFVDYKVLDEADRLLEIGFRDDLETISGILNEKNSKSADNIKTLLFSAALDDKVQKLANNIMNKKECLFLDTVDKNEPEAHERIDQSVVISEKFANSIFAAVEHIKKQIKERDSNYKAIIFAPTVKFTSFLCSILKNEFKKDLPILEFHGKITQNKRTSLVKRFKKDESGILVCTDVGARGMDFPNVHEVLQIGVPSELANYIHRIGRTARSGKEGSSVLFICKDELPFVRELEDAKNIVIAKQEKYEPSEEIKSEVLEAVTEEPEDISDIVISLISSYRSCIKEYRFSERRILPEIASTYGVLLNDPQLKIPVSRRFLDKLGLSRSPIGKAMFEIRDYSSRDGNNKSYDYDDDSEISFRGNKNYNNRSQNRDYDDEPFRRSNNNRRSFSRSNDKNNYSSRNSNIY
  Km: 180 ± 4 µM
  kcat: 0.061 ± 0.0045 s⁻¹

B5: Mss116p (Saccharomyces cerevisiae S288C; R245E) (protein)
chain: NHITWAVSRRLYNDGNRDQRNFGRNQRNNNSNRYRNSRFNSRPRTRSREDDDEVHFDKTTFSKLIHVPKEDNSKEVTLDSLLEEGVLDKEIHKAITRMEFPGLTPVQQKTIKPILSSEDHDVIARAKTGTGKTFAFLIPIFQHLINTKFDSQYMVKAVIVAPTRDLALQIEAEVKKIHDMNYGLKKYACVSLVGGTDFRAAMNKMNKLRPNIVIATPGELIDVLEKYSNKFFRFVDYKVLDEADRLLEIGFRDDLETISGILNEKNSKSADNIKTLLFSATLDDKVQKLANNIMNKKECLFLDTVDKNEPEAHERIDQSVVISEKFANSIFAAVEHIKKQIKERDSNYKAIIFAPTVKFTSFLCSILKNEFKKDLPILEFHGKITQNKRTSLVKRFKKDESGILVCTDVGARGMDFPNVHEVLQIGVPSELANYIHRIGRTARSGKEGSSVLFICKDELPFVRELEDAKNIVIAKQEKYEPSEEIKSEVLEAVTEEPEDISDIVISLISSYRSCIKEYRFSERRILPEIASTYGVLLNDPQLKIPVSRRFLDKLGLSRSPIGKAMFEIRDYSSRDGNNKSYDYDDDSEISFRGNKNYNNRSQNRDYDDEPFRRSNNNRRSFSRSNDKNNYSSRNSNIY
  Km: 554 ± 153 µM
  kcat: 8.18 ± 0.08 ^e^, ^f
